Measurements as given in paper PMC7261175, “A splice site-sensing conformational switch in U2AF2 is modulated by U2AF1 and its recurrent myelodysplasia-associated mutation” (Nucleic Acids Research, 2019).
Changes are numbered by the printed parent chain. Names and notes keep the numbering of the source.

Experiments:
[1] = biological target: T1, His6SumoMBP-U2AF1 S34F;U2AF2 Cy3/Cy5 (human;human, UniProt Q01081;P26368-2 1-188;85-342, S34F;C67S|A181C;C305A;Q324C); assay: smFRET; RNA tethered; 33% closed; Anisotropy: 150 mM NaCl, 25 mM HEPES pH 6.8, 0.5 mM TCEP, 3% glycerol, 20 uM ZnCl2, 0.2 U/ul SUPERase-In; smFRET: 25 mM HEPES pH 7.0, 150 mM KCl, 0.01% octaethylene glycol monododecyl ether, 0.2 mM TCEP, 6 mM BME, 1.5 mM Trolox, oxygen scavenger, room temperature, excess U2AF1 (1000 nM) with heterodimer; settings: protein: recombinant;recombinant; tags: N-terminal His6-SUMO-MBP with AAA linker; C-terminal extra Ala;GST cleaved; Cy3/Cy5 on C181 and C324; copies: 1;1; label: biotin on annealed DNA
[2] = biological target: T2, His6SumoMBP-U2AF1;U2AF2 Cy3/Cy5 (human;human, UniProt Q01081;P26368-2 1-188;85-342, C67S|A181C;C305A;Q324C); assay: smFRET; RNA tethered; 66% closed; Anisotropy: 150 mM NaCl, 25 mM HEPES pH 6.8, 0.5 mM TCEP, 3% glycerol, 20 uM ZnCl2, 0.2 U/ul SUPERase-In; smFRET: 25 mM HEPES pH 7.0, 150 mM KCl, 0.01% octaethylene glycol monododecyl ether, 0.2 mM TCEP, 6 mM BME, 1.5 mM Trolox, oxygen scavenger, room temperature, excess U2AF1 (1000 nM) with heterodimer; settings: protein: recombinant;recombinant; tags: N-terminal His6-SUMO-MBP with AAA linker; C-terminal extra Ala;GST cleaved; Cy3/Cy5 on C181 and C324; copies: 1;1; label: biotin on annealed DNA
[3] = biological target: T3, U2AF2 Cy3/Cy5 isolated subunit (human, UniProt P26368-2 113-342, A181C;C305A;Q324C); assay: smFRET; RNA tethered; Anisotropy: 150 mM NaCl, 25 mM HEPES pH 6.8, 0.5 mM TCEP, 3% glycerol, 20 uM ZnCl2, 0.2 U/ul SUPERase-In; smFRET: 25 mM HEPES pH 7.0, 150 mM KCl, 0.01% octaethylene glycol monododecyl ether, 0.2 mM TCEP, 6 mM BME, 1.5 mM Trolox, oxygen scavenger, room temperature, excess U2AF1 (1000 nM) with heterodimer; settings: protein: recombinant, tags: His6 and T7 tags, label: biotin on annealed DNA, stem-loop
[4] = biological target: T2, His6SumoMBP-U2AF1;U2AF2 Cy3/Cy5; assay: smFRET; RNA tethered; ~70% closed; Anisotropy: 150 mM NaCl, 25 mM HEPES pH 6.8, 0.5 mM TCEP, 3% glycerol, 20 uM ZnCl2, 0.2 U/ul SUPERase-In; smFRET: 25 mM HEPES pH 7.0, 150 mM KCl, 0.01% octaethylene glycol monododecyl ether, 0.2 mM TCEP, 6 mM BME, 1.5 mM Trolox, oxygen scavenger, room temperature, excess U2AF1 (1000 nM) with heterodimer; settings: protein: recombinant;recombinant; tags: N-terminal His6-SUMO-MBP with AAA linker; C-terminal extra Ala;GST cleaved; Cy3/Cy5 on C181 and C324; copies: 1;1; label: biotin on annealed DNA; stem-loop
[5] = biological target: T1, His6SumoMBP-U2AF1 S34F;U2AF2 Cy3/Cy5; assay: smFRET; RNA tethered; similar to WT; Anisotropy: 150 mM NaCl, 25 mM HEPES pH 6.8, 0.5 mM TCEP, 3% glycerol, 20 uM ZnCl2, 0.2 U/ul SUPERase-In; smFRET: 25 mM HEPES pH 7.0, 150 mM KCl, 0.01% octaethylene glycol monododecyl ether, 0.2 mM TCEP, 6 mM BME, 1.5 mM Trolox, oxygen scavenger, room temperature, excess U2AF1 (1000 nM) with heterodimer; settings: protein: recombinant;recombinant, tags: N-terminal His6-SUMO-MBP with AAA linker, C-terminal extra Ala;GST cleaved, Cy3/Cy5 on C181 and C324, copies: 1;1, label: biotin on annealed DNA
[6] = biological target: T2, His6SumoMBP-U2AF1;U2AF2 Cy3/Cy5; assay: smFRET; RNA tethered; open and closed; Anisotropy: 150 mM NaCl, 25 mM HEPES pH 6.8, 0.5 mM TCEP, 3% glycerol, 20 uM ZnCl2, 0.2 U/ul SUPERase-In; smFRET: 25 mM HEPES pH 7.0, 150 mM KCl, 0.01% octaethylene glycol monododecyl ether, 0.2 mM TCEP, 6 mM BME, 1.5 mM Trolox, oxygen scavenger, room temperature, excess U2AF1 (1000 nM) with heterodimer; settings: protein: recombinant;recombinant; tags: N-terminal His6-SUMO-MBP with AAA linker; C-terminal extra Ala;GST cleaved; Cy3/Cy5 on C181 and C324; copies: 1;1; label: biotin on annealed DNA
[7] = biological target: T2, His6SumoMBP-U2AF1;U2AF2 Cy3/Cy5; assay: smFRET titration; protein tethered; from 0.4 and 0.6 FRET peak areas; Anisotropy: 150 mM NaCl, 25 mM HEPES pH 6.8, 0.5 mM TCEP, 3% glycerol, 20 uM ZnCl2, 0.2 U/ul SUPERase-In; smFRET: 25 mM HEPES pH 7.0, 150 mM KCl, 0.01% octaethylene glycol monododecyl ether, 0.2 mM TCEP, 6 mM BME, 1.5 mM Trolox, oxygen scavenger, room temperature, excess U2AF1 (1000 nM) with heterodimer; settings: protein: recombinant;recombinant; tags: N-terminal His6-SUMO-MBP with AAA linker; C-terminal extra Ala;GST cleaved; Cy3/Cy5 on C181 and C324; copies: 1;1
[8] = biological target: T3, U2AF2 Cy3/Cy5 isolated subunit; assay: smFRET; RNA tethered; open and closed; Anisotropy: 150 mM NaCl, 25 mM HEPES pH 6.8, 0.5 mM TCEP, 3% glycerol, 20 uM ZnCl2, 0.2 U/ul SUPERase-In; smFRET: 25 mM HEPES pH 7.0, 150 mM KCl, 0.01% octaethylene glycol monododecyl ether, 0.2 mM TCEP, 6 mM BME, 1.5 mM Trolox, oxygen scavenger, room temperature, excess U2AF1 (1000 nM) with heterodimer; settings: protein: recombinant; tags: His6 and T7 tags; Cy3/Cy5; label: biotin on annealed DNA
[9] = biological target: T1, His6SumoMBP-U2AF1 S34F;U2AF2 Cy3/Cy5; assay: smFRET; RNA tethered; same as IgM(-3C); Anisotropy: 150 mM NaCl, 25 mM HEPES pH 6.8, 0.5 mM TCEP, 3% glycerol, 20 uM ZnCl2, 0.2 U/ul SUPERase-In; smFRET: 25 mM HEPES pH 7.0, 150 mM KCl, 0.01% octaethylene glycol monododecyl ether, 0.2 mM TCEP, 6 mM BME, 1.5 mM Trolox, oxygen scavenger, room temperature, excess U2AF1 (1000 nM) with heterodimer; settings: protein: recombinant;recombinant; tags: N-terminal His6-SUMO-MBP with AAA linker; C-terminal extra Ala;GST cleaved; Cy3/Cy5 on C181 and C324; copies: 1;1; label: biotin on annealed DNA; stem-loop (predicted)
[10] = biological target: T2, His6SumoMBP-U2AF1;U2AF2 Cy3/Cy5; assay: smFRET; RNA tethered; more open than IgM(-3C); Anisotropy: 150 mM NaCl, 25 mM HEPES pH 6.8, 0.5 mM TCEP, 3% glycerol, 20 uM ZnCl2, 0.2 U/ul SUPERase-In; smFRET: 25 mM HEPES pH 7.0, 150 mM KCl, 0.01% octaethylene glycol monododecyl ether, 0.2 mM TCEP, 6 mM BME, 1.5 mM Trolox, oxygen scavenger, room temperature, excess U2AF1 (1000 nM) with heterodimer; settings: protein: recombinant;recombinant; tags: N-terminal His6-SUMO-MBP with AAA linker; C-terminal extra Ala;GST cleaved; Cy3/Cy5 on C181 and C324; copies: 1;1; label: biotin on annealed DNA; stem-loop (predicted)
[11] = biological target: T4, U2AF2^Cy3/Cy5 (residues 85-342, C305A, A181C, Q324C, labelled with Cy3/Cy5) (human, UniProt P26368-2 85-342, C305A | A181C | Q324C, Cy3- or Cy5-maleimide on the cysteines at 181 and 324 (a mixture of Cy3/Cy5 at each site)); assay: SEC; labelled U2AF2 mixed with stoichiometric His6SumoMBP-U2AF1, salt lowered to 150 mM NaCl, 25 mM HEPES pH 7.0, 3% glycerol, 0.2 mM TCEP; complex purified on Superdex-200; settings: both partners purified
T4 construct: pGEX6p-1 vector, GST removed with PreScission protease; also called U2AF^65; labeled U2AF2; not shown: GST, N-terminal, cleaved

[12] = biological target: T5, D215R/G319R U2AF2^Cy3/Cy5 (residues 85-342, C305A, A181C, Q324C, labelled with Cy3/Cy5) (human, UniProt P26368-2 85-342, D215R | G319R | C305A | A181C | Q324C, Cy3- or Cy5-maleimide on the cysteines at 181 and 324 (a mixture of Cy3/Cy5 at each site)); assay: single-molecule imaging (smFRET, TIRF) of labelled U2AF2 tethered to the slide through His-tagged U2AF1; His6SumoMBP-U2AF1 with bound U2AF2^Cy3/Cy5 (5 nM heterodimer) held on biotinyl-NTA(Ni2+)/neutravidin slide; 1000 nM excess U2AF1 in the buffer; no RNA; room temperature; 25 mM HEPES pH 7.0, 150 mM KCl; settings: both partners purified
T5 construct: The methods print the mutant once as D215R-D319R; results, legends and discussion print D215R/G319R; also called D215R/G319R mutant; D215R-D319R-mutant U2AF2; not shown: GST, N-terminal, cleaved

[13] = biological target: T4, U2AF2^Cy3/Cy5 (residues 85-342, C305A, …); assay: as above; settings: both partners purified

T2 sequence (P26368 85-342 A181C/C305A/Q324C, one chain of several): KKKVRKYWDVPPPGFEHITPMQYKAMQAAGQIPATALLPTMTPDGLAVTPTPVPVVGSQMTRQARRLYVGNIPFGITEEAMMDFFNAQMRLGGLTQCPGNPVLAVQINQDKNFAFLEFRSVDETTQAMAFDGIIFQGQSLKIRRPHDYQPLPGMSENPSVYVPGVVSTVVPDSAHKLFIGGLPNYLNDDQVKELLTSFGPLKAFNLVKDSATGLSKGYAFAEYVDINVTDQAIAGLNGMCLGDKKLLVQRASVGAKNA
T1 sequence (P26368 85-342 A181C/C305A/Q324C, one chain of several): as above
T4 sequence (P26368 85-342 A181C/C305A/Q324C): as the sequence (P26368 85-342 A181C/C305A/Q324C, one chain of several) above
T3 sequence (P26368 113-342 A181C/C305A/Q324C): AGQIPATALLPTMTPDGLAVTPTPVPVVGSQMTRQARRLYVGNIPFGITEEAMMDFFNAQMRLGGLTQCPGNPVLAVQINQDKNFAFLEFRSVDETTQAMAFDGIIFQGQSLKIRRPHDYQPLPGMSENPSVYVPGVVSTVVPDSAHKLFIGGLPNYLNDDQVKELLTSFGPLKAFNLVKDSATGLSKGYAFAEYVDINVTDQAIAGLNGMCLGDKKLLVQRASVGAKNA
T5 sequence (P26368 85-342 A181C/D215R/C305A/G319R/Q324C): as the sequence (P26368 85-342 A181C/C305A/Q324C, one chain of several) above, with D131R, G235R counted along it

ACUUUUAACUCUCGAUAGGAACUAAU (ssRNA, 3' PEG18-DNA conjugate) [FMR1]: binds [1]; binds [2].

UGUCUCUGUCACCUGCAGGUGAAAUG (structured_RNA, 3' PEG18-DNA conjugate) [IgM (-3C)]: binds [3]; binds [4]; binds ([5]; stem-loop).

CCAUUUAUUUUGACUUAGAUUAUAUU (ssRNA, 3' PEG18-DNA conjugate) [CASP8]: binds [5]; binds [6].

For UCCCUUUUUUUUCCACAGCUCGCGGU (ssRNA) [AdML], the Kd [7] was roughly 600 nM.

UACUAAAUUAAUUUCUAGAAAAGAGU (ssRNA, 3' PEG18-DNA conjugate) [DEK (-3U)]: binds [5]; binds [6]; binds [8].

UGUCUCUGUCACCUGUAGGUGAAAUG (structured_RNA, 3' PEG18-DNA conjugate) [IgM(-3U)]: binds [9]; binds [10].

B1: His6SumoMBP-U2AF1 (residues 1-188, C67S, C-terminal alanine) (domain or fragment, human)
chain: MAEYLASIFGTEKDKVNCSFYFKIGACRHGDRCSRLHNKPTFSQTIALLNIYRNPQNSSQSADGLRSAVSDVEMQEHYDEFFEEVFTEMEEKYGEVEEMNVCDNLGDHLVGNVYVKFRREEDAEKAVIDLNNRWFNGQPIHAELSPVTDFREACCRQYEMGECTRGGFCNFMHLKPISRELRRELYGRA
notes: C-terminal alanine added to enhance soluble protein expression; A three-alanine linker is part of the N-terminal tag; Modified pCDF-1b vector; also called U2AF^35; MBP-fused U2AF1; source: E. coli BL21(DE3), purified (HisTrap, Superdex-75 SEC); not shown: His6, N-terminal, kept; Sumo, N-terminal, kept; MBP, N-terminal, kept
B1: binds [11]; binds [12].

B2: S34F-mutant His6SumoMBP-U2AF1 (residues 1-188, C67S, C-terminal alanine) (domain or fragment, human)
chain: B1 chain with S34F
notes: C-terminal alanine added to enhance soluble protein expression; S34F was introduced into the corresponding wild-type U2AF1 construct; three-alanine linker in the N-terminal tag as for m1; also called S34F U2AF1; S34F mutant U2AF1; source: E. coli BL21(DE3), purified by identical methods as the wild-type parent (HisTrap, Superdex-75 SEC); not shown: His6, N-terminal, kept; Sumo, N-terminal, …
B2: binds [13].
